Kd and kon data for one molecule are collected here from PMC2857867.

For the test, the target named is VACV strain WR IFNα/βBP B18 (vaccinia virus strain Western Reserve), P25213. Nature of the test: SPR. The following applies: remark: other sources report otherwise.

The term Kd denotes the constant that tells how readily two partners part at equilibrium. The kon is a measure of how fast the partners come together. High values mean faster complex formation, low ones slower complex formation.

B1: hIL-29, Q8IU54 20-200 (ligand)
chain: GPVPTSKPTTTGKGCHIGRFKSLSPQELASFKKARDALEESLKLKNWSCSSPVFPGNWDLRLLQVRERPVALEAELALTLKVLEAAAGPALEDVLDQPLHTLHHILSQLQACIQPQPTAGPRPRGRLHHWLHRLQEAPKKESAGCLEASVTFNLFRLLTRDLKYVADGNLCLRTSTHPEST
Regarding B1, the equilibrium dissociation constant (Kd) was 13.5 nM and the kon amounted to 193000 M⁻¹ s⁻¹.
